The results in this text go back to patent US7674604.

Assay [1] addresses LFA-1 mutant K287C/K294C (αL K287C/K294C with β2) on 293T or K562 transfectants (human) (UniProt P05107). The assay can be described thus: flow cytometry, 293T, normalized to TS2/4. Background: Flow cytometry measures light scatter and fluorescence of single cells or particles in a stream.
Assay [2] concerns the target LFA-1 mutant L289C/K294C (αL L289C/K294C with β2) on 293T or K562 transfectants (human) (UniProt P05107). As to the kind of experiment: flow cytometry, 293T, normalized to TS2/4.
The target of assay [3] is LFA-1 mutant K287C/K294C (αL K287C/K294C with β2) on 293T or K562 transfectants (human) (UniProt P05107). The assay can be described thus: flow cytometry, K562, normalized to TS2/4.
Assay [4] addresses LFA-1 mutant L289C/K294C (αL L289C/K294C with β2) on 293T or K562 transfectants (human) (UniProt P05107). As to the kind of experiment: flow cytometry, K562, normalized to TS2/4.
Assay [5] deals with LFA-1 single cysteine substitution mutant K287C on 293T transfectants (human) (UniProt P05107). As to the kind of experiment: flow cytometry, 293T, normalized to TS2/4.
Assay [6] addresses LFA-1 single cysteine substitution mutant K294C on 293T transfectants (human) (UniProt P05107). The assay can be described thus: flow cytometry, 293T, normalized to TS2/4.
The target of assay [7] is LFA-1 single cysteine substitution mutant L289C on 293T transfectants (human) (UniProt P05107). As to the kind of experiment: flow cytometry, 293T, normalized to TS2/4.

As to “anti-β2 (CD18) monoclonal antibody CBRLFA-1/7”, the % wild-type binding (% of wild-type) in assay [1] came to 95.3; in assay [2] it was 91.7; in assay [3] it was 95.2; in assay [4], 97.2.

As for “anti-β2 (CD18) monoclonal antibody TS1/18”, the % wild-type binding (% of wild-type) in assay [1] came to 99.8; in assay [2] it was 95.7; in assay [5] it was 87.9; in assay [6], 108; in assay [7] it was 87.3; in assay [3], 97.4. This substance also registered a % wild-type binding (% of wild-type) in assay [4] of 106.

Take monoclonal antibody 25-3-1: the % wild-type binding (% of wild-type) worked out at 93.1 in assay [1], 90.9 in assay [2], 88.5 in assay [3] and 85.7 in assay [4].

In the case of monoclonal antibody BL5, the % wild-type binding (% of wild-type) was 92.4 in assay [1]; 85.8 in assay [2]; 93.3 in assay [5]; 88.3 in assay [6]; 92.4 in assay [7]; 92.4 in assay [3]. In assay [4], the % wild-type binding (% of wild-type) was 97.6.

For the substance monoclonal antibody CLBLFA-1/1, the % wild-type binding (% of wild-type) in assay [3] was 96.5; in assay [4] it was 100.

Take monoclonal antibody F8.8: the % wild-type binding (% of wild-type) in assay [1] amounted to 93.7; in assay [2], 83.6; in assay [5] it was 95.9; in assay [6], 95.5; in assay [7] it was 99.6; in assay [3], 102. For the same substance, in assay [4], the % wild-type binding (% of wild-type) was 93.9.

Turning to monoclonal antibody May.035, the % wild-type binding (% of wild-type) in assay [1] worked out at 92.6; in assay [2], 82.1; in assay [5], 95.8; in assay [6], 106; in assay [7] it was 95.4; in assay [3], 92.6. In assay [4], this substance gave a % wild-type binding (% of wild-type) of 101.

On to monoclonal antibody S6F1, for which the % wild-type binding (% of wild-type) in assay [1] came to 89.4; in assay [2], 95.3; in assay [5], 98.3; in assay [6] it was 92.3; in assay [7], 86.4; in assay [3], 97.4. This substance also registered a % wild-type binding (% of wild-type) in assay [4] of 85.7.

As for “mouse anti-human αL (CD11a) monoclonal antibody TS1/11”, the % wild-type binding (% of wild-type) in assay [1] turned out to be 94.4; in assay [2] it was 93.7; in assay [3], 96; in assay [4], 105.

Turning to “mouse anti-human αL (CD11a) monoclonal antibody TS1/12”, the % wild-type binding (% of wild-type) came out at 88.7 in assay [1]; 102 in assay [2]; 99.3 in assay [5]; 93.7 in assay [6]; 104 in assay [7]; 87.3 in assay [3]. Further, the % wild-type binding (% of wild-type) in assay [4] came out at 106.

Turning to “mouse anti-human αL (CD11a) monoclonal antibody TS2/6”, the % wild-type binding (% of wild-type) in assay [1] came to 84.9; in assay [2], 78.6; in assay [5] it was 91.4; in assay [6], 91.7; in assay [7], 88.2; in assay [3] it was 89.2. Also, in assay [4], the % wild-type binding (% of wild-type) stood at 95.9.
